# Where “and” joins values, the source holds several entries; their conditions need not be identical. Equal values may be shown once.
# Key:
# [1] = molecular target: the molecule itself; assay: cryo-EM structure; digitonin-induced intermediate state; Talos Arctica; 2D class averages and a map at 16 Å
# [2] = molecular target: the molecule itself; assay: cryo-EM structure; sample #1: pore complexes in DDM, all SEC fractions pooled; Talos Arctica 200 kV; maps at 6.8 Å and 7.5 Å
# [3] = molecular target: the molecule itself; assay: negative staining EM; ClyA incubated with 1% digitonin overnight, fractions from SEC (Superose 6 10/300 GL); intermediate state
# [4] = molecular target: the molecule itself; assay: cryo-EM structure; sample #3: ClyA 2.5 mg/mL with 0.5% DDM and 5 mM DTT at 4°C overnight, then SEC in 25 mM Tris-HCl pH 8.0, 150 mM NaCl, 0.05% digitonin, 2 mM DTT; Titan Krios 300 kV; C12, C13, C14 classes
protein,measurement,setting,value
"E. coli cytolysin A (ClyA) with complete N-terminal purification tag (natural protein, E. coli cytolysin A (ClyA), cDNA amplified from BL21 (DE3), mutations and deletions removed by two-step PCR; final plasmid has A248V compared to UniProtKB P77335; The soluble protein is a monomer; the oligomers (12, 13, 14, about 3) form with detergent; also called hemolysin (HlyE); silent hemolysin A (SheA); source: E. coli BL21 (DE3), purified (Ni2+-NTA, Mono Q anion exchange); not shown: His6, …) MTEIVADKTVEVVKNAIETADGALDLYNKYLDQVIPWQTFDETIKELSRFKQEYSQAASVLVGDIKTLLMDSQDKYFEATQTVYEWCGVATQLLAAYILLFDEYNEKKASAQKDILIKVLDDGITKLNEAQKSLLVSSQSFNNASGKLLALDSQLTNDFSEKSSYFQSQVDKIRKEAYAGAAAGVVAGPFGLIISYSIAAGVVEGKLIPELKNKLKSVQNFFTTLSNTVKQANKDIDAAKLKLTTEIVAIGEIKTETETTRFYVDYDDLMLSLLKEAAKKMINTCNEYQKRHGKKTLFEVPEV",stoichiometry N,[1],3 and 4
same,stoichiometry N,[2],12 and 13
same,stoichiometry N,[3],~3
same,stoichiometry N,[4],14

# Source: article PMC6497250, “High-resolution cryo-EM structures of the E. coli hemolysin ClyA oligomers” (PLoS ONE, 2019)
